Our source for the stoichiometry N values is PMC8053098.

This assay concerns the target Escherichia coli MnmA, as-purified (aerobically purified, tag removed) (Escherichia coli) (UniProt P25745). Put plainly: SEC-MALS.

In turn, “Escherichia coli MnmA, as-purified (aerobically purified, tag removed) (from UniProt P25745 1-368) (enzyme)” displayed a stoichiometry N of 2.
